Source: IntAct's records for PubMed 21376235

B1: RNA polymerase II-associated protein 1 (Saccharomyces cerevisiae), P38351 (parent)
chain: MSKKQEYIAPIKYQNSLPVPQLPPKLLVYPESPETNADSSQLINSLYIKTNVTNLIQQDEDLGMPVDLMKFPGLLNKLDSKLLYGFDNVKLDKDDRILLRDPRIDRLTKTDISKVTFLRRTEYVSNTIAAHDNTSLKRKRRLDDGDSDDENLDVNHIISRVEGTFNKTDKWQHPVKKGVKMVKKWDLLPDTASMDQVYFILKFMGSASLDTKEKKSLNTGIFRPVELEEDEWISMYATDHKDSAILENELEKGMDEMDDDSHEGKIYKFKRIRDYDMKQVAEKPMTELAIRLNDKDGIAYYKPLRSKIELRRRRVNDIIKPLVKEHDIDQLNVTLRNPSTKEANIRDKLRMKFDPINFATVDEEDDEDEEQPEDVKKESEGDSKTEGSEQEGENEKDEEIKQEKENEQDEENKQDENRAADTPETSDAVHTEQKPEEEKETLQEE
partner: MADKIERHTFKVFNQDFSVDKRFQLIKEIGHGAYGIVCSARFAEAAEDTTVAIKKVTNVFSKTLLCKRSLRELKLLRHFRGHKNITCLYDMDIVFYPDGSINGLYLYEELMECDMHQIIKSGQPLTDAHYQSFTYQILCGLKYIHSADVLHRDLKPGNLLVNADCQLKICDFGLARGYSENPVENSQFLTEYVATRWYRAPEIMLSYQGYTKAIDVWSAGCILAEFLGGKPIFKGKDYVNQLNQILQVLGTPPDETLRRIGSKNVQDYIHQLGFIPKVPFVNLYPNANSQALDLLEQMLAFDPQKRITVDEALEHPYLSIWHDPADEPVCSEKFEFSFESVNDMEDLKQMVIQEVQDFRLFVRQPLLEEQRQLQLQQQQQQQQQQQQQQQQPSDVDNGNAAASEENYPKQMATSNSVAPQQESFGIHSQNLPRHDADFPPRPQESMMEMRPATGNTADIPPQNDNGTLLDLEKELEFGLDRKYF

Variants of: B1
Settings: with slt2_yeast SLT2, Q00772
MSKKQEYIAPIKYQNSLPVPQLPPKLLVYPESPETNADSSQLINSLYIKTNVTNLIQQDEDLGMPVDLMKFPGLLNKLDSKLLYGFDNVKLDKDDRILLRDPRIDRLTKTDISKVTFLRRTEYVSNTIAAHDNTSLKRKRRLDDGDSDDENLDVNHIISRVEGTFNKTDKWQHPVKKGVKMVKKWDLLPDAAFMDQVYFILKFMGSASLDTKEKKSLNTGIFRPVELEEDEWISMYATDHKDSAILENELEKGMDEMDDDSHEGKIYKFKRIRDYDMKQVAEKPMTELAIRLNDKDGIAYYKPLRSKIELRRRRVNDIIKPLVKEHDIDQLNVTLRNPSTKEANIRDKLRMKFDPINFATVDEEDDEDEEQPEDVKKESEGDSKTEGSEQEGENEKDEEIKQEKENEQDEENKQDENRAADTPETSDAVHTEQKPEEEKETLQEE [T191A;S193F] was tested, and the “effect of a mutation on the interaction” value was “decreasing interaction”.
